These results are taken from patent publication US20250304927A1, “PRO-PEPTIDE VARIANTS FOR MODULATING ACTIVITY OF TRANSGLUTAMINASES” (CURIE CO. INC., priority 2022, published 2025).

To fix the notation:
T1: evolved variant of mature Streptomyces mobaraensis transglutaminase, including a two amino acid linker and … (Streptomyces mobaraensis, UniProt P81453 79-407)
T1 chain: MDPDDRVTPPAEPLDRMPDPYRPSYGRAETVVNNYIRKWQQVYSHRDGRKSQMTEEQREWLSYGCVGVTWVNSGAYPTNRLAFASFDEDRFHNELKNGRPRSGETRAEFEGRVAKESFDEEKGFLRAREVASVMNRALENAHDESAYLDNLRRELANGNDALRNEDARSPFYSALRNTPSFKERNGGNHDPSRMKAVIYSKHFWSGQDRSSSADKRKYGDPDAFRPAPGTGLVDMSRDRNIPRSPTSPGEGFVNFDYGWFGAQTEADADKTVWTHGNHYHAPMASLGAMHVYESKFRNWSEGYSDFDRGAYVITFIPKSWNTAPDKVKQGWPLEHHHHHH

In the first series the target is T1, evolved variant of mature Streptomyces …. The series is described as follows: cell-based or functional assay.
Settings: not given
MSNGAGSETKSYAETYRLTAIDVANINALNESAPAASSAGPSFRAP [pro-peptide variant D2S, E7S, D21I (Method B)]: the Inhibition is above 1.2 fold. Turning to MDNGAGSETKSYAETYRLTATQVANINALNESAPAASSAGPSFRAP [pro-peptide variant E7S, D21T, D22Q (Method B)], the Inhibition was above 1.2 fold. In the case of MDNGAGSETKSYAETYRLTATDVANINALNESAPAASSAGPSFRAP [pro-peptide variant E7S, D21T (Method B)], the Inhibition is above 1.2 fold. Same read-out and setting: the figure for MFNGAGEETKSYAETYRLTADDVANINALNESAPAASSAGPSFRAP [pro-peptide variant D2F (Method B)] is above 1.2 fold; for MDNGAGEETKSYAETYRVTATDVANINALNESAPAASSAGPSFRAP [pro-peptide variant L18V, D21T (Method B)] it is above 2 fold. Same read-out and setting: the figure for MINGAGEETKSYAETYRLTADQVANINALNESAPAASSAGPSFRAP [pro-peptide variant D2I, D22Q (Method B)] is above 1.2 fold. Same read-out and setting: the value for MSNGAGEETKSYAETYRLTATQVANINALNESAPAASSAGPSFRAP [pro-peptide variant D2S, D21T, D22Q (Method B)] was above 1.2 fold; that for MDNGAGEETKSYAETYRVTADDVANINALNESAPAASSAGPSFRAP [pro-peptide variant L18V (Method B)] was above 2 fold; that for MDNGAGEETKSYAETYRLTATQVANINALNESAPAASSAGPSFRAP [pro-peptide variant D21T, D22Q (Method B)] was above 1.2 fold. Molecule MSNGAGEETKSYAETYRLTADQVANINALNESAPAASSAGPSFRAP [pro-peptide variant D2S, D22Q (Method B)] displayed an Inhibition above 2 fold. Still for that read-out and setting: the value for MINGAGSETKSYAETYRVTARDVANINALNESAPAASSAGPSFRAP [pro-peptide variant D2I, E7S, L18V, D21R (Method B)] was above 2 fold. The same measure, in the same setting: the figure for MDNGAGEETKSYAETYRVTATQVANINALNESAPAASSAGPSFRAP [pro-peptide variant L18V, D21T, D22Q (Method B)] is above 2 fold; for MINGAGEETKSYAETYRLTATQVANINALNESAPAASSAGPSFRAP [pro-peptide variant D2I, D21T, D22Q (Method B)] it is above 1.2 fold. The same measure, in the same setting: the value for MDNGAGSETKSYAETYRVTAIDVANINALNESAPAASSAGPSFRAP [pro-peptide variant E7S, L18V, D21I (Method B)] was above 2 fold; that for MINGAGSETKSYAETYRLTAIDVANINALNESAPAASSAGPSFRAP [pro-peptide variant D2I, E7S, D21I (Method B)] was above 1.2 fold; that for MDNGAGSETKSYAETYRVTARDVANINALNESAPAASSAGPSFRAP [pro-peptide variant E7S, L18V, D21R (Method B)] was above 2 fold. Consider MDNGAGSETKSYAETYRLTARDVANINALNESAPAASSAGPSFRAP [pro-peptide variant E7S, D21R (Method B)], for which the Inhibition was above 1.2 fold. On the same count and under the same terms, the figure for MSNGAGSETKSYAETYRLTATQVANINALNESAPAASSAGPSFRAP [pro-peptide variant D2S, E7S, D21T, D22Q (Method B)] is above 2 fold. Same read-out and setting: the value for MDNGAGSETKSYAETYRLTADQVANINALNESAPAASSAGPSFRAP [pro-peptide variant E7S, D22Q (Method B)] was above 1.2 fold; that for MSNGAGEETKSYAETYRVTADQVANINALNESAPAASSAGPSFRAP [pro-peptide variant D2S, L18V, D22Q (Method B)] was above 2 fold.

The target of the next series is T2, mature evolved transglutaminase (SEQ ID NO: 5) (Streptomyces mobaraensis, UniProt P81453, G359A/K167H/K227R/K228R/N358M/Q126S/Q150A/Q200L).
T2 construct: hexa-His tag with two amino acid linker (C); made in house; host or cells: E. coli BL21 (DE3)
Put plainly: transglutaminase thermostability: activity after being held at 37-50 °C. Set-up: key: The symbol, —, represents not determined, neutral, or reduced performance. Conditions: relative to wild-type pro-peptide; held at 37° C.-50° C. for 30 minutes, diluted 10-fold to 100-fold. It counts as biochemical. Here is the method: The terms “stability” and “thermostability” are used interchangeably to refer to increased residual activity of mature transglutaminase after incubation at elevated temperatures. In some embodiments, a pro-peptide variant increases the stability of a mature transglutaminase compared to the wild type pro-peptide. Measurement of stability is depicted in Example 4.
It is believed that these pro-peptide variants confer thermal stability to mature transglutaminase.
As to “D2I, E7S, L18V, D21R: combination variant of pro-peptide SEQ ID NO: 2, Method B (MINGAGSETKSYAETYRVTARDVANINALNESAPAASSAGPSFRAP)”, the Thermostability result is listed as “—”.

With “E7S, D21T: combination variant of pro-peptide SEQ ID NO: 2, Method B (MDNGAGSETKSYAETYRLTATDVANINALNESAPAASSAGPSFRAP)”, the Thermostability entry is given as “—”. On the same count and under the same terms, the entry for “E7S, D21R: combination variant of pro-peptide SEQ ID NO: 2, Method B (MDNGAGSETKSYAETYRLTARDVANINALNESAPAASSAGPSFRAP)” is “—”. Regarding “D2S, E7S: combination variant of pro-peptide SEQ ID NO: 2, Method B (MSNGAGSETKSYAETYRLTADDVANINALNESAPAASSAGPSFRAP)”, the Thermostability entry is “—”. Turning to “E7S, L18V, D21R: combination variant of pro-peptide SEQ ID NO: 2, Method B (MDNGAGSETKSYAETYRVTARDVANINALNESAPAASSAGPSFRAP)”, the Thermostability entry is on record as “—”.

Regarding “L18V, D21T: combination variant of pro-peptide SEQ ID NO: 2, Method B (MDNGAGEETKSYAETYRVTATDVANINALNESAPAASSAGPSFRAP)”, the Thermostability entry is reported as “—”.

For “D2S, D21T, D22Q: combination variant of pro-peptide SEQ ID NO: 2, Method B (MSNGAGEETKSYAETYRLTATQVANINALNESAPAASSAGPSFRAP)”, the Thermostability entry is recorded as “—”. On the same count and under the same terms, the value for “D2F: substitution variant of pro-peptide SEQ ID NO: 2 (MFNGAGEETKSYAETYRLTADDVANINALNESAPAASSAGPSFRAP) [Variant D2F]” was “—”; that for “D2S, E7S, D21T, D22Q: combination variant of pro-peptide SEQ ID NO: 2, Method B (MSNGAGSETKSYAETYRLTATQVANINALNESAPAASSAGPSFRAP)” was “—”. In the case of “D2I, E7S, D21I: combination variant of pro-peptide SEQ ID NO: 2, Method B (MINGAGSETKSYAETYRLTAIDVANINALNESAPAASSAGPSFRAP)”, the Thermostability entry is “—”.

With “D2S, L18V, D22Q: combination variant of pro-peptide SEQ ID NO: 2, Method B (MSNGAGEETKSYAETYRVTADQVANINALNESAPAASSAGPSFRAP)”, the Thermostability result is listed as “—”. Still for that read-out and setting: the entry for “D2S, E7S, D22Q: combination variant of pro-peptide SEQ ID NO: 2, Method B (MSNGAGSETKSYAETYRLTADQVANINALNESAPAASSAGPSFRAP)” is “—”. Still for that read-out and setting: the value for “E7S, L18V, D21I: combination variant of pro-peptide SEQ ID NO: 2, Method B (MDNGAGSETKSYAETYRVTAIDVANINALNESAPAASSAGPSFRAP)” was “—”; that for “D21T, D22Q: combination variant of pro-peptide SEQ ID NO: 2, Method B (MDNGAGEETKSYAETYRLTATQVANINALNESAPAASSAGPSFRAP)” was “—”; that for “E7S, D21T, D22Q: combination variant of pro-peptide SEQ ID NO: 2, Method B (MDNGAGSETKSYAETYRLTATQVANINALNESAPAASSAGPSFRAP)” was “—”. On the same count and under the same terms, the value for “D2S, E7S, D21I: combination variant of pro-peptide SEQ ID NO: 2, Method B (MSNGAGSETKSYAETYRLTAIDVANINALNESAPAASSAGPSFRAP)” was “—”; that for “D2S, D22Q: combination variant of pro-peptide SEQ ID NO: 2, Method B (MSNGAGEETKSYAETYRLTADQVANINALNESAPAASSAGPSFRAP)” was “—”. Take “D2I, E7S, D22Q: combination variant of pro-peptide SEQ ID NO: 2, Method B (MINGAGSETKSYAETYRLTADQVANINALNESAPAASSAGPSFRAP)”: the Thermostability result was “—”. Same read-out and setting: the entry for “L18V, D21T, D22Q: combination variant of pro-peptide SEQ ID NO: 2, Method B (MDNGAGEETKSYAETYRVTATQVANINALNESAPAASSAGPSFRAP)” is “—”. Same read-out and setting: the value for “D2I, D22Q: combination variant of pro-peptide SEQ ID NO: 2, Method B (MINGAGEETKSYAETYRLTADQVANINALNESAPAASSAGPSFRAP)” was “—”; that for “D2I, D21T, D22Q: combination variant of pro-peptide SEQ ID NO: 2, Method B (MINGAGEETKSYAETYRLTATQVANINALNESAPAASSAGPSFRAP)” was “—”.
